These results are taken from PMC5493759, “Neurovascular EGFL7 regulates adult neurogenesis in the subventricular zone and thereby affects olfactory perception” (Nature Communications, 2017).

Holding throughout (assay): co-IP; Flag-tagged EGFL7 co-expressed with V5-tagged Notch ECDs or Notch1-ECD deletion mutants in HEK293; lysate immunoprecipitated with Immunosorb A overnight at 4 °C; quantitative western blot (Odyssey); n=3
Assay [1] deals with V5-tagged Notch1-ECD deletion mutant Notch1-Δ11+12 (UniProt Q01705).
V5-tagged Notch1-ECD deletion mutant Notch1-Δ11+12, sequence (Q01705 19-1725, stated change not applied): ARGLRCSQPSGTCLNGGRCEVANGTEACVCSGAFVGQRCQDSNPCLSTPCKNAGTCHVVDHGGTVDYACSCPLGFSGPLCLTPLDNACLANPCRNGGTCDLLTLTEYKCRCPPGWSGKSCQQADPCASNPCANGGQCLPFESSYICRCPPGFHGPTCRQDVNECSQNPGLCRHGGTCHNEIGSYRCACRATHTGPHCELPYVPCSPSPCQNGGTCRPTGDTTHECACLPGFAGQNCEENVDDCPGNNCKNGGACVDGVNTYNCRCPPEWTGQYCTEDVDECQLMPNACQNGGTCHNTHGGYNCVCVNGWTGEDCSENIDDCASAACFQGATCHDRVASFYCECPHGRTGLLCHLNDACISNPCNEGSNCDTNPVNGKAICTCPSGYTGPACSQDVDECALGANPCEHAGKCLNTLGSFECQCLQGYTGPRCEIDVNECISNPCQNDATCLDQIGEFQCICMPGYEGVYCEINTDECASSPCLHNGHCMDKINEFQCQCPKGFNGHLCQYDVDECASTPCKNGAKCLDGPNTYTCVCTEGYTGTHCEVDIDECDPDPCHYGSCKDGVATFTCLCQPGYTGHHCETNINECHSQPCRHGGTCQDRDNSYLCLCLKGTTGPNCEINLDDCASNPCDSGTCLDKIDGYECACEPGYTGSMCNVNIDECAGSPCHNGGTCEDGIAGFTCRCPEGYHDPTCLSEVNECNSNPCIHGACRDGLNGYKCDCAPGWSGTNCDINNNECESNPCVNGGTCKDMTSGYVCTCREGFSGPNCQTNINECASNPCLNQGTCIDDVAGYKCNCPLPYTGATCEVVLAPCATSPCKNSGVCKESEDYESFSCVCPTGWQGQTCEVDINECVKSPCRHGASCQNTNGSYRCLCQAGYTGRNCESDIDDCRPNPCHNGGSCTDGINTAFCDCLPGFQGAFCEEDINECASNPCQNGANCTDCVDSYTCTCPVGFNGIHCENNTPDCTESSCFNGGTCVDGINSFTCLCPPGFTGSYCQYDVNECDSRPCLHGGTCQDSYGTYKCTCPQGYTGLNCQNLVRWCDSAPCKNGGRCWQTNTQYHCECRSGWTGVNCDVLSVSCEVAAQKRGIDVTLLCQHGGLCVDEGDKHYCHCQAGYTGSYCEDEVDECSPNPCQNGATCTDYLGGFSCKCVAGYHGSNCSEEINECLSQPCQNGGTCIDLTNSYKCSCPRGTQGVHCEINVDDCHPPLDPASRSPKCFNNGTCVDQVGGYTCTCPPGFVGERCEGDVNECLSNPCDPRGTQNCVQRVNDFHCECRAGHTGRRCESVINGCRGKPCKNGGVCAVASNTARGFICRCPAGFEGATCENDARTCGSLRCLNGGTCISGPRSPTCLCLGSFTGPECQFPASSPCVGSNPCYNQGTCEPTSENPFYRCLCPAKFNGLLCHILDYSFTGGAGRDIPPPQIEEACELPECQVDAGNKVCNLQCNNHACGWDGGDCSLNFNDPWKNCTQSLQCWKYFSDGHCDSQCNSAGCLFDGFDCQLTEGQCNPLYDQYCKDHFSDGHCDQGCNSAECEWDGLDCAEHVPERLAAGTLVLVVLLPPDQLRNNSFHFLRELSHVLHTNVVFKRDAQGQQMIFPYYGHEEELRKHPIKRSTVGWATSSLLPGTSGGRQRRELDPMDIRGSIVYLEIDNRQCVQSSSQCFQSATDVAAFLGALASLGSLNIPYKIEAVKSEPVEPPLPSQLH
Assay [2] deals with V5-tagged Notch1-ECD deletion mutant Notch1-Δ5–10 (UniProt Q01705).
V5-tagged Notch1-ECD deletion mutant Notch1-Δ5–10, sequence (Q01705 19-1725, stated change not applied): as above
For assay [3], the target named is V5-tagged Notch1-ECD deletion mutant Notch1-Δ8 (UniProt Q01705).
V5-tagged Notch1-ECD deletion mutant Notch1-Δ8, sequence (Q01705 19-1725, stated change not applied): as above
The target of assay [4] is T1, V5-tagged Notch2 extracellular domain (UniProt O35516 26-1679).
T1 construct: Notch2, extracellular domain; source: HEK293, transiently transfected, in lysate
T1 sequence (O35516 26-1679): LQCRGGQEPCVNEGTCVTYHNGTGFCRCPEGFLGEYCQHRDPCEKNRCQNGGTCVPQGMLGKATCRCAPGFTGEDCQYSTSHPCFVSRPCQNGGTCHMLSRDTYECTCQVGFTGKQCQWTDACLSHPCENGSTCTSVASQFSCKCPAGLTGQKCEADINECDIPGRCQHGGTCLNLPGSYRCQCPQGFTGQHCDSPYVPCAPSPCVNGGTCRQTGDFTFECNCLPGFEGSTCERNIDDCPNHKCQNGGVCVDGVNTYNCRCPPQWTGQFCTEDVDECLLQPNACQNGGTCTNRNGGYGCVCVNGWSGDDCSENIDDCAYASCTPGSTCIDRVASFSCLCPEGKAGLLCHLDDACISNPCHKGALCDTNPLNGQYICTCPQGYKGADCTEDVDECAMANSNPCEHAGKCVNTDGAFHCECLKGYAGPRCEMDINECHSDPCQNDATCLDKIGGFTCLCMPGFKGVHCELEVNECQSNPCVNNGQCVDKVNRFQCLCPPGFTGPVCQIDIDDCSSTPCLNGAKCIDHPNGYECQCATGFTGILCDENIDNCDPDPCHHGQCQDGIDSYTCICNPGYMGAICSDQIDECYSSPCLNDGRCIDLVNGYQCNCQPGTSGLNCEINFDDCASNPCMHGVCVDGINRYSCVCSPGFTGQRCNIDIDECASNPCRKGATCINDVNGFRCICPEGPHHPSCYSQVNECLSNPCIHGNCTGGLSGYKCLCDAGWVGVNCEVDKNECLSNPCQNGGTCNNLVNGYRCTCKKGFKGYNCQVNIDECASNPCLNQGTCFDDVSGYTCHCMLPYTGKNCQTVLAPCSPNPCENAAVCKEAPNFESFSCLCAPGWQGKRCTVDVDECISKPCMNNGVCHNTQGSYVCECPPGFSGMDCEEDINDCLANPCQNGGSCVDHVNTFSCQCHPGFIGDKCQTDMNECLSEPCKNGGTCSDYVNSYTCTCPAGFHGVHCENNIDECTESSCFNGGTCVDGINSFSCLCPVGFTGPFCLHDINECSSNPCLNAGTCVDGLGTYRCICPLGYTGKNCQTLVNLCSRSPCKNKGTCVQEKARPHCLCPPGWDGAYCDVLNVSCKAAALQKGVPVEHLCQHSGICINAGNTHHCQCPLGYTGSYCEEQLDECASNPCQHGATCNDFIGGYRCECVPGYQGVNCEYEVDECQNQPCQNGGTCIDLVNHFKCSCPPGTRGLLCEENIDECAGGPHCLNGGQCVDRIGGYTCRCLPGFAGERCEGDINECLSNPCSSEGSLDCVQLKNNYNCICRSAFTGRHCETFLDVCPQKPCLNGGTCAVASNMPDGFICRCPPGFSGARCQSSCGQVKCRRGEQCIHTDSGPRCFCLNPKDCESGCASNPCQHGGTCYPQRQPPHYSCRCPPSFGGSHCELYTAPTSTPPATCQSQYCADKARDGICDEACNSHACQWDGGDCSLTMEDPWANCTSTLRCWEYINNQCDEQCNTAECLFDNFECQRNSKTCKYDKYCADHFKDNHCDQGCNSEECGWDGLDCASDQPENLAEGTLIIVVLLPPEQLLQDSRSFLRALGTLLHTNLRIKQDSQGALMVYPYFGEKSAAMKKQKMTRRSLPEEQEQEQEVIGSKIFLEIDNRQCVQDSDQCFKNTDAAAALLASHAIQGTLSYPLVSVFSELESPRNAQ
The conditions noted are these: partners not purified.

Assay [5] addresses T2, V5-tagged Notch3 extracellular domain (UniProt Q61982 40-1643).
T2 construct: Notch3, extracellular domain; source: HEK293, transiently transfected, in lysate
The conditions noted are these: partners not purified.

Assay [6] concerns the target T3, V5-tagged Notch4 extracellular domain (UniProt P31695 21-1443).
T3 construct: Notch4, extracellular domain; source: HEK293, transiently transfected, in lysate
T3 sequence (looked up): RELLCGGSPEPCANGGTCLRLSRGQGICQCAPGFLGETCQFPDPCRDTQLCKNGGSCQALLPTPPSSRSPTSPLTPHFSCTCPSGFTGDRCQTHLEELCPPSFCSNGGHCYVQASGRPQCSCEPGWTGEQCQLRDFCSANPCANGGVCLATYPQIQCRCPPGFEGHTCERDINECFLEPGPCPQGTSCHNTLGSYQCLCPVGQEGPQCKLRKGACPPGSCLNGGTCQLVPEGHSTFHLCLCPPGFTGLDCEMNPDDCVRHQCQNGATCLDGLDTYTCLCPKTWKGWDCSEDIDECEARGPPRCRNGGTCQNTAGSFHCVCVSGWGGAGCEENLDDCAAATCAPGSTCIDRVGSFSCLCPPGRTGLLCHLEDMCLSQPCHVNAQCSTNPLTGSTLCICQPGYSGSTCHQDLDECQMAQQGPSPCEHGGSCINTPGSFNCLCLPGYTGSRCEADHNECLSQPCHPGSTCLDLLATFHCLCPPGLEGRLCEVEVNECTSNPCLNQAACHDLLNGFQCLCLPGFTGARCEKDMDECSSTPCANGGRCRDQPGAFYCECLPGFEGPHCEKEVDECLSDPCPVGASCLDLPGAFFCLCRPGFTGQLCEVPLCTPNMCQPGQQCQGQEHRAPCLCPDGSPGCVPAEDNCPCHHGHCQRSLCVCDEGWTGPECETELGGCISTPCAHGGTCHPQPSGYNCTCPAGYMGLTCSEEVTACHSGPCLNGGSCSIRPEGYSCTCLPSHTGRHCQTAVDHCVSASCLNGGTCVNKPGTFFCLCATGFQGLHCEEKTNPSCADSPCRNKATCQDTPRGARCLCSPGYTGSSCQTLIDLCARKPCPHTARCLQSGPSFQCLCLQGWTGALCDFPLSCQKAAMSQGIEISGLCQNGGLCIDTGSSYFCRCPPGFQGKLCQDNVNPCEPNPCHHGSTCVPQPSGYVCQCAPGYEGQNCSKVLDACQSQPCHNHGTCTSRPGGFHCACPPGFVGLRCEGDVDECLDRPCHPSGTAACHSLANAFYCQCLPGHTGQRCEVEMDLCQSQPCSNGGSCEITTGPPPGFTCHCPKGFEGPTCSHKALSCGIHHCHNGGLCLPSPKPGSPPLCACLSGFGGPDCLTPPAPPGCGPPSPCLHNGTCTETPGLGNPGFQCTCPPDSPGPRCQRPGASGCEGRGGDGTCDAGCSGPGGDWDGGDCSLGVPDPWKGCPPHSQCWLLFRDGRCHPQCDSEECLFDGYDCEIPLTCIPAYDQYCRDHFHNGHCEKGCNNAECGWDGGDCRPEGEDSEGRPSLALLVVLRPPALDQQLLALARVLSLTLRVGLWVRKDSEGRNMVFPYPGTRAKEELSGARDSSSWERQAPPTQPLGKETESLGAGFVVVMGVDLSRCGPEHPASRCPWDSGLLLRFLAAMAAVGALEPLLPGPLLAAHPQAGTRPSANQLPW
The conditions noted are these: partners not purified.

T2 sequence (Q61982 40-1643): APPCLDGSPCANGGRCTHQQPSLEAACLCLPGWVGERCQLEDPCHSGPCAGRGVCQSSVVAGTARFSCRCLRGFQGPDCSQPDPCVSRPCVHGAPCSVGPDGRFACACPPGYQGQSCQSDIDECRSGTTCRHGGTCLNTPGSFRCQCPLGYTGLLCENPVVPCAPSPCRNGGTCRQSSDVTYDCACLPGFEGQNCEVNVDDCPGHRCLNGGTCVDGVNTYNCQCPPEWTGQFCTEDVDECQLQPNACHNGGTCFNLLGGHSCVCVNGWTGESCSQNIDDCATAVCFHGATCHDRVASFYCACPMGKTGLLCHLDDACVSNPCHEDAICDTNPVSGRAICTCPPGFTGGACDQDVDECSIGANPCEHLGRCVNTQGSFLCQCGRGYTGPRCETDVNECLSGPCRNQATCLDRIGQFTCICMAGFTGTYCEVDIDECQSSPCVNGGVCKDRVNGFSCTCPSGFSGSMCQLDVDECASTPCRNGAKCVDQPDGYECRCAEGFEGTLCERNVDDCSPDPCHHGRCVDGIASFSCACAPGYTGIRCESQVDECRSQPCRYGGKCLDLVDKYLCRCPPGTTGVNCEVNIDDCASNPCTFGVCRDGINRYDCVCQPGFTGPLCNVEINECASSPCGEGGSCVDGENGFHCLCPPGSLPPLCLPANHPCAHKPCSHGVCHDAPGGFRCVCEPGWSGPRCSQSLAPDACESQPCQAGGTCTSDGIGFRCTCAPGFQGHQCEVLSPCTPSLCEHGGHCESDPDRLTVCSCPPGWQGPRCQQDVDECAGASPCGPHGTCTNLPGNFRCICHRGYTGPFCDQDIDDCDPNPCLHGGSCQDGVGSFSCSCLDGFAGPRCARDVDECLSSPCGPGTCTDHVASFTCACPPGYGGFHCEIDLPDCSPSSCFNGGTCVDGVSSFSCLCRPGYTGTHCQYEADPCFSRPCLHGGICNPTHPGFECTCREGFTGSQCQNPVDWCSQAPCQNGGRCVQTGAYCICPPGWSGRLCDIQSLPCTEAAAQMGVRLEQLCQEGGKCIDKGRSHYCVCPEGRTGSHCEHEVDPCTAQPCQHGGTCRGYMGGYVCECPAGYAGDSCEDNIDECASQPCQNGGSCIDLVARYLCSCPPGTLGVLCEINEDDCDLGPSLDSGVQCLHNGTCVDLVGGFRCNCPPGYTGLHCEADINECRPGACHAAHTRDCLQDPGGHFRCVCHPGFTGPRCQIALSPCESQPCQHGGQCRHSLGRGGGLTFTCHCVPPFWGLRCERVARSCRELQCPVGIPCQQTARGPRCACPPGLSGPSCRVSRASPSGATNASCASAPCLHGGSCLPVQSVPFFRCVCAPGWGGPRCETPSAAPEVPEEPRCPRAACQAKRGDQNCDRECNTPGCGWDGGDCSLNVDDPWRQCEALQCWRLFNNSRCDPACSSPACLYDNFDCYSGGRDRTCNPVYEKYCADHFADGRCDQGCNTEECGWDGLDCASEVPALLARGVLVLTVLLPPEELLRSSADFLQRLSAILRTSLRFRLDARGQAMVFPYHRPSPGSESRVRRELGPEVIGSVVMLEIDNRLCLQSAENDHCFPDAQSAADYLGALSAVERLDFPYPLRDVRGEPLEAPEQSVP

B1: Flag-tagged EGFL7 (epidermal growth factor-like protein 7) (natural protein, UniProt Q9QXT5 22-275, looked up)
chain: EHVYRPSRRVCTVGISGGSISETFVQRVYQPYLTTCDGHRACSTYRTIYRTAYRRSPGVTPARPRYACCPGWKRTSGLPGACGAAICQPPCGNGGSCIRPGHCRCPVGWQGDTCQTDVDECSTGEASCPQRCVNTVGSYWCQGWEGQSPSADGTRCLSKEGPSPVAPNPTAGVDSMAREEVYRLQARVDVLEQKLQLVLAPLHSLASRSTEHGLQDPGSLLAHSFQQLDRIDSLSEQVSFLEEHLGSCSCKKDL
notes: epidermal growth factor-like protein 7 (EGFL7); the same molecule is used here; source: HEK293, transiently transfected, in lysate
As to B1, the figures for the change in binding relative to Notch1-ECD in assay [1], in assay [2] and in assay [3] were -26%, -18% and -28%, respectively. Moreover, the “binding relative to Notch1-ECD” value is around 76% in assay [4], around 41% in assay [5] and around 35% in assay [6].
